Some targets named below: AHNAK1, Q09666; FRMPD2_2, Q68DX3; FRMPD3, Q5JV73; GORASP2, Q9H8Y8; GRID2IP_1, A4D2P6; Inadl_5, Q8NI35; LNX1_3, Q8TBB1; MAGI2_5, Q86UL8; MAST2, Q6P0Q8; PICK1, Q9NRD5; TJP1_3, Q07157.
Test in all cases: holdup assay
Set-up in all cases: key: below the threshold = too weak to quantify, mostly under pKd 3.1 to 4
Holding throughout (details): plain residues with an end cap or a label only (N-terminal biotin on a linker: ado-ado)

The target of a further experiment is T1, DFNB31_3, Q9P202.
T1 sequence (Q9P202 811-907, limits assumed, looked up): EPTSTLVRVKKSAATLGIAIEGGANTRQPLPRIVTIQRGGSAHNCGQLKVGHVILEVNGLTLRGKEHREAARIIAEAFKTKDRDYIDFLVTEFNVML

In another experiment the target is T2, GRIP1_4, Q9Y3R0.
T2 sequence (Q9Y3R0 467-571, limits assumed, looked up): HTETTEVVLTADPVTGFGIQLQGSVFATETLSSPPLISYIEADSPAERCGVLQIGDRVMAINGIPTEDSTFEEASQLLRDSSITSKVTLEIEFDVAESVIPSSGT

A further experiment has as its target T3, GRIP1_7, Q9Y3R0.
T3 sequence (Q9Y3R0 999-1096, limits assumed, looked up): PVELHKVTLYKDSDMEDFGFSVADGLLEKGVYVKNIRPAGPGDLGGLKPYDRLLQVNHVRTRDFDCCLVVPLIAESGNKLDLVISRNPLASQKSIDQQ

The target in a further experiment is T4, LIN7A, O14910.
T4 sequence (O14910 103-200, limits assumed, looked up): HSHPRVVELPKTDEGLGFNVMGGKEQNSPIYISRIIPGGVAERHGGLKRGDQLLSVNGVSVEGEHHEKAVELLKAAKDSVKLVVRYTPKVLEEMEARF

A further experiment deals with T5, LIN7C, Q9NUP9.
T5 sequence (Q9NUP9 88-185, limits assumed, looked up): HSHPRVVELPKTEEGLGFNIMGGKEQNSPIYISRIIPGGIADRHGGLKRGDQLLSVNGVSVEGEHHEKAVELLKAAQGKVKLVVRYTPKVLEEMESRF

The target in another experiment is T6, MPDZ_5, O75970.
T6 sequence (O75970 695-796, limits assumed, looked up): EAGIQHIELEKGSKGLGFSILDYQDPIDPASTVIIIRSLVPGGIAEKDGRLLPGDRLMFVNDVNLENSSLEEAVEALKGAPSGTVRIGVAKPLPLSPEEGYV

The next experiment concerns the target T7, NHERF3_3, Q5T2W1.
T7 sequence (Q5T2W1 238-333, limits assumed, looked up): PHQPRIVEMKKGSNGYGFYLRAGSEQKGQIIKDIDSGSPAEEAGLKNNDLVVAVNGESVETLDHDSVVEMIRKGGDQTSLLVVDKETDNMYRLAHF

The next experiment addresses T8, PDZD2_2, O15018.
T8 sequence (O15018 329-429, limits assumed, looked up): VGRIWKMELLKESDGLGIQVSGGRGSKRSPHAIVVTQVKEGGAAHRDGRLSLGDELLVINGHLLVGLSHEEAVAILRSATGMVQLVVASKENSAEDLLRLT

For another experiment, the target named is T9, PTPN13_1, Q12923.
T9 sequence (Q12923 1088-1188, limits assumed, looked up): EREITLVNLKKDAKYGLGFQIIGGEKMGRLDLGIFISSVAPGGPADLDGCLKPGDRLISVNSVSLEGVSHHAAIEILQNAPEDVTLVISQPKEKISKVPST

The target of another experiment is T10, RAPGEF6, Q8TEU7.
T10 sequence (Q8TEU7 525-625, limits assumed, looked up): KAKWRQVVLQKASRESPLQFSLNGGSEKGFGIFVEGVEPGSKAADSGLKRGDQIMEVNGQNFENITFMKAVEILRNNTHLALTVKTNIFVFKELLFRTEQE

A further experiment addresses T11, SNTB1, Q13884.
T11 sequence (Q13884 107-205, limits assumed, looked up): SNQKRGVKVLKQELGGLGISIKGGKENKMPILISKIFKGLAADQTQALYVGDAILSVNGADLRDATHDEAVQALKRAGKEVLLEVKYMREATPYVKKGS

A further experiment concerns the target T12, SNTG1, Q9NSN8.
T12 sequence (Q9NSN8 52-150, limits assumed, looked up): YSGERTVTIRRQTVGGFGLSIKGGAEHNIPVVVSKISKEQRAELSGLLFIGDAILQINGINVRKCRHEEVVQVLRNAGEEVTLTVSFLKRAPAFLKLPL

For a further experiment, the target named is T13, SYNJ2BP, P57105.
T13 sequence (P57105 8-110, limits assumed, looked up): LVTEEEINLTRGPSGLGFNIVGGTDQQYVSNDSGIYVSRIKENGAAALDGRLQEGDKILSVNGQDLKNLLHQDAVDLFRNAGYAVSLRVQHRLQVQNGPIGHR

GRID2IP_1, A4D2P6, sequence (A4D2P6 1-87): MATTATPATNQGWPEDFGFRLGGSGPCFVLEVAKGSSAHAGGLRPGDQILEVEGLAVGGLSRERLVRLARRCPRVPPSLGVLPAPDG
LNX1_3, Q8TBB1, sequence (Q8TBB1 500-596): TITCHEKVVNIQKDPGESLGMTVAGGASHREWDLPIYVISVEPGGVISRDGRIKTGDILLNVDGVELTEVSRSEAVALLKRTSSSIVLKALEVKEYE
AHNAK1, Q09666, sequence (Q09666 4-100): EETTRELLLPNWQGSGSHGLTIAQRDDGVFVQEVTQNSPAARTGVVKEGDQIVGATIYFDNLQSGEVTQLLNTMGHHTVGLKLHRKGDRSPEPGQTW
FRMPD2_2, Q68DX3, sequence (Q68DX3 944-1038): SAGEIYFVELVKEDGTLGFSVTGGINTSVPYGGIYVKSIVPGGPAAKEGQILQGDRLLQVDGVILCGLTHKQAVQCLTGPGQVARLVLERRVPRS
PICK1, Q9NRD5, sequence (Q9NRD5 17-115): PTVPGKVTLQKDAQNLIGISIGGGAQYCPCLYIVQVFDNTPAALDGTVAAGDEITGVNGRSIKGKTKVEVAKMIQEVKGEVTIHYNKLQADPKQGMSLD
FRMPD3, Q5JV73, sequence (Q5JV73 12-100): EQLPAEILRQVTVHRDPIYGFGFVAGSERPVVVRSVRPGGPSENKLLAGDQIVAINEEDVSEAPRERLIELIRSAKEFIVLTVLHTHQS
MAST2, Q6P0Q8, sequence (Q6P0Q8 1099-1202): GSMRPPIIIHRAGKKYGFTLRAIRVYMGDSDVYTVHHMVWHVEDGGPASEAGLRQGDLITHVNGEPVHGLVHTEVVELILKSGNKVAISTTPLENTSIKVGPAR
MAGI2_5, Q86UL8, sequence (Q86UL8 915-1017): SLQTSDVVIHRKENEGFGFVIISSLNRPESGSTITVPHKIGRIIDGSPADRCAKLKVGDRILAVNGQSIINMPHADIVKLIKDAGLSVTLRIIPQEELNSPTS
Inadl_5, Q8NI35, sequence (Q8NI35 673-780): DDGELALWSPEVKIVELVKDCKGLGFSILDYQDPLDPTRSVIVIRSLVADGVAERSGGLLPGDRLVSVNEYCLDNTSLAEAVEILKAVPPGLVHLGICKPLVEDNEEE
TJP1_3, Q07157, sequence (Q07157 416-512): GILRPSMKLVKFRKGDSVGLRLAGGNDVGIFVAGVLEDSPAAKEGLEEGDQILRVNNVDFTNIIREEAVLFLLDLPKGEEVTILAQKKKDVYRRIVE

B1: BCR, P11274 (peptide)
chain: RQSILFSTEV
B1: the pKd entry in the experiment with AHNAK1, Q09666 is “below the threshold”; with DFNB31_3, Q9P202 it was “below the threshold”; with FRMPD2_2, Q68DX3 it was 4.12; in the experiment with FRMPD3, Q5JV73, “below the threshold”; in the experiment with GORASP2, Q9H8Y8, 3.82; with GRID2IP_1, A4D2P6 it was “below the threshold”. Further, the pKd result was “below the threshold” in the experiment with GRIP1_4, Q9Y3R0; “below the threshold” with GRIP1_7, Q9Y3R0; 3.49 in the experiment with Inadl_5, Q8NI35; 3.66 in the experiment with LIN7A, O14910; 3.63 in the experiment with LIN7C, Q9NUP9; 3.64 in the experiment with LNX1_3, Q8TBB1. Besides, the pKd is 5.17 in the experiment with MAGI2_5, Q86UL8; 5.4 with MAST2, Q6P0Q8; “below the threshold” with MPDZ_5, O75970; “below the threshold” with NHERF3_3, Q5T2W1; 4.76 with PDZD2_2, O15018; “below the threshold” in the experiment with PICK1, Q9NRD5. Further, the pKd entry with PTPN13_1, Q12923 is “below the threshold”; with RAPGEF6, Q8TEU7, “below the threshold”; with SNTB1, Q13884, 4.46; in the experiment with SNTG1, Q9NSN8, 4.67; in the experiment with SYNJ2BP, P57105, 5.28; with TJP1_3, Q07157 it was “below the threshold”.

B2: HSPA5, P11021 (peptide)
chain: EEDTAEKDEL
For B2, the pKd entry in the experiment with AHNAK1, Q09666 was “below the threshold”; with DFNB31_3, Q9P202, 4.19; with FRMPD2_2, Q68DX3 it was “below the threshold”; with FRMPD3, Q5JV73, “below the threshold”; with GORASP2, Q9H8Y8 it was “below the threshold”; with GRID2IP_1, A4D2P6 it was “below the threshold”. Moreover, the pKd result with GRIP1_4, Q9Y3R0 is “below the threshold”; with GRIP1_7, Q9Y3R0 it was “below the threshold”; with Inadl_5, Q8NI35 it was “below the threshold”; with LIN7A, O14910 it was 3.49; with LIN7C, Q9NUP9 it was “below the threshold”; with LNX1_3, Q8TBB1, “below the threshold”. Besides, the negative-log Kd (pKd) entry is “below the threshold” with MAGI2_5, Q86UL8; 3.7 with MAST2, Q6P0Q8; “below the threshold” with MPDZ_5, O75970; “below the threshold” in the experiment with NHERF3_3, Q5T2W1; 3.53 with PDZD2_2, O15018; “below the threshold” in the experiment with PICK1, Q9NRD5. The negative logarithm of the Kd (pKd) entry is “below the threshold” with PTPN13_1, Q12923; “below the threshold” with RAPGEF6, Q8TEU7; “below the threshold” with SNTB1, Q13884; “below the threshold” in the experiment with SNTG1, Q9NSN8; 3.52 with SYNJ2BP, P57105; “below the threshold” with TJP1_3, Q07157.

B3: CTNNA2, P26232 (peptide)
chain: LSEFKAMDSF
Regarding B3, the pKd entry with AHNAK1, Q09666 is given as “below the threshold”; with DFNB31_3, Q9P202, “below the threshold”; with FRMPD2_2, Q68DX3 it was “below the threshold”; with FRMPD3, Q5JV73, “below the threshold”; with GORASP2, Q9H8Y8 it was “below the threshold”; with GRID2IP_1, A4D2P6, “below the threshold”. The negative-log Kd (pKd) result with GRIP1_4, Q9Y3R0 is listed as “below the threshold”; with GRIP1_7, Q9Y3R0, “below the threshold”; with Inadl_5, Q8NI35, “below the threshold”; with LIN7A, O14910 it was “below the threshold”; with LIN7C, Q9NUP9 it was “below the threshold”; with LNX1_3, Q8TBB1, “below the threshold”. Moreover, the pKd result in the experiment with MAGI2_5, Q86UL8 is given as “below the threshold”; with MAST2, Q6P0Q8, “below the threshold”; with MPDZ_5, O75970 it was “below the threshold”; in the experiment with NHERF3_3, Q5T2W1, “below the threshold”; with PDZD2_2, O15018 it was “below the threshold”; with PICK1, Q9NRD5, “below the threshold”. The pKd entry is given as “below the threshold” with PTPN13_1, Q12923; “below the threshold” with RAPGEF6, Q8TEU7; “below the threshold” with SNTB1, Q13884; “below the threshold” with SNTG1, Q9NSN8; “below the threshold” with SYNJ2BP, P57105; “below the threshold” with TJP1_3, Q07157.

B4: SLC1A4, P43007 (peptide)
chain: PELESKESVL
With B4, the pKd entry with AHNAK1, Q09666 was “below the threshold”; with DFNB31_3, Q9P202 it was “below the threshold”; in the experiment with FRMPD2_2, Q68DX3, “below the threshold”; with FRMPD3, Q5JV73, “below the threshold”; with GORASP2, Q9H8Y8, “below the threshold”; with GRID2IP_1, A4D2P6, “below the threshold”. The pKd result was “below the threshold” in the experiment with GRIP1_4, Q9Y3R0; “below the threshold” with GRIP1_7, Q9Y3R0; “below the threshold” with Inadl_5, Q8NI35; “below the threshold” with LIN7A, O14910; 4.28 with LIN7C, Q9NUP9; “below the threshold” in the experiment with LNX1_3, Q8TBB1. The negative logarithm of the Kd (pKd) with MAGI2_5, Q86UL8 was 4.02; with MAST2, Q6P0Q8, 5.21; in the experiment with MPDZ_5, O75970, “below the threshold”; with NHERF3_3, Q5T2W1, “below the threshold”; with PDZD2_2, O15018 it was 4.16; with PICK1, Q9NRD5, “below the threshold”. In addition, the pKd result in the experiment with PTPN13_1, Q12923 is “below the threshold”; with RAPGEF6, Q8TEU7, “below the threshold”; with SNTB1, Q13884, 4.8; in the experiment with SNTG1, Q9NSN8, 3.68; in the experiment with SYNJ2BP, P57105, 4.34; in the experiment with TJP1_3, Q07157, “below the threshold”.

In general, pKd refers to the Kd on a negative log10 scale, so that one unit is a factor of ten.

Source of the values: PMC9482650, “Quantitative fragmentomics allow affinity mapping of interactomes” (Nature Communications, 2022).
